The text below walks through data of US20040091468, “Novel transcriptional mediators of blood vessel development and endothelial differentiation” (published 2004).

The target in data set [1] is T1, cELF-1 (Gallus gallus).
T1 chain: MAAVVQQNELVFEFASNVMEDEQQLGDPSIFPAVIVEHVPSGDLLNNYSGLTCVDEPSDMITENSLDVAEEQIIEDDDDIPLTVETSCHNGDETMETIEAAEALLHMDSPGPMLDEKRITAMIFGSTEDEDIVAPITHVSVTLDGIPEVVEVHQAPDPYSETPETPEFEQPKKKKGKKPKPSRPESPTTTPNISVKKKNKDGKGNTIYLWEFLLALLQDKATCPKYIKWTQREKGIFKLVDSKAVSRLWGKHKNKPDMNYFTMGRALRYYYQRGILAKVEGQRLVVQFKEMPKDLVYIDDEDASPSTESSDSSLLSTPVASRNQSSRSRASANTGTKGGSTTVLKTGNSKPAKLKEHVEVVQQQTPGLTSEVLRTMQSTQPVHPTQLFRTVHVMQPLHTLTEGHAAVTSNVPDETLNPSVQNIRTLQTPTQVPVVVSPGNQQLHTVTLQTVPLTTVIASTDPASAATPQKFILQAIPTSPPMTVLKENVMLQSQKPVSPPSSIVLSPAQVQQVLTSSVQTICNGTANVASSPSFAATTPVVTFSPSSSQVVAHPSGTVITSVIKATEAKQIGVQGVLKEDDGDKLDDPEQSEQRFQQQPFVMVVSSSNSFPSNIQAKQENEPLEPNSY
Briefly: competition; 5 or 50 ng cold competitor vs Tie1 P2 probe; unable to compete. The conditions noted are these: tags: none (TNT reticulocyte lysate). How it is done:
(§1) The ability of cELF-1 to bind to conserved Ets sites in the Tie1 promoter was examined. There are two Ets site doublets, P1 and P2 that are highly conserved in this promoter. The ability of cELF-1 to bind to these Ets sites was tested. As is shown in FIG. 8C, cELF-1 binds well to both of these Ets sites. […] When both of the Ets site were mutated (Mut 1,2) the oligonucleotides were unable to compete for binding. When the first Ets site was mutated, Mut 1, it competed only weakly with binding of cELF-1 to the Tie1 P2 probe.
(§2) Briefly, 20-μL samples containing 2 μL of in vitro-translated products or cell extracts were incubated with a solution containing ³²P-labeleddouble-stranded probes (30 000 cpm). Samples were incubated in the presence or absence of increasing amounts of cold competitor (5 or 50 ng) for 15 to 20 minutes at room temperature and run on a 4% polyacrylamide gel (acrylamide-bisacrylamide, 29:1) containing a buffer of 0.25×TBE (22.5 mmol/L Tris borate and 0.5 mmol/L EDTA).

Data set [2] deals with T1, cELF-1. Description: EMSA; binds well; wild type cold oligo competes. As to conditions: tags: none (TNT reticulocyte lysate); label: 32P. Here is the method:
as §1, §2
A general note: Mobility shift assays separate free from complexed probe on a gel.

Data set [3] deals with T1, cELF-1. Briefly: competition; 5 or 50 ng cold competitor vs Tie1 P2 probe; competes as well as wild type. The conditions noted are these: tags: none (TNT reticulocyte lysate). How it is done:
as §1, §2

Data set [4] deals with T1, cELF-1. Briefly: EMSA; anti-ELF-1 antibody interferes and supershifts; room temperature. The conditions noted are these: tags: none (TNT reticulocyte lysate); label: 32P. Here is the method: The ability of in vitro translated human ELF-1 and cELF-1 to bind to the same Tie2 Ets sites was also examined. As is shown in FIG. 8A, both human and chicken ELF-1 form similar DNA-protein complexes with the Tie2 Ets sites (lane 2 and 3). The ability of an ELF-1 specific antibody to interfere with the formation of these complexes was also tested. This antibody was able to interfere with complex formation of both human and chicken ELF-1. […] Because several Ets factors may potentially bind to the Tie2 Ets site in vivo in the developing chicken we performed gel shift assays with the Tie2 Ets probe and cell extracts from the chicken CAM. As is shown in FIG. 8B, lane 3, a similar size complex is formed compared to the in vitro translated cELF-1.
as §2

Data set [5] has as its target T1, cELF-1. Description: EMSA; binds well; room temperature. As to conditions: tags: none (TNT reticulocyte lysate); label: 32P. Here is the method:
as §1, §2

B1: Tie1 P2 Mut1,2 (dsDNA)
DNA 1: CCATCATTTAATCTTAATCCCCAG
DNA 2: CTGGGGATTAAGATTAAATGATGG
In the case of B1, in the data set with cELF-1 [1], the binding result is “no binding”.

B2: Tie1 P2 (dsDNA)
DNA 1: CCATCATTTCCTCTTCCTCCCCAG
DNA 2: CTGGGGAGGAAGAGGAAATGATGG
As for B2, in the data set with cELF-1 [2], the binding result is “binds”.

B3: Tie1 P2 Mut2 (dsDNA)
DNA 1: CCATCATTTCCTCTTAATCCCCAG
DNA 2: CTGGGGATTAAGAGGAAATGATGG
B3: in the data set with cELF-1 [3], the binding result is listed as “binds”.

B4: Tie2 promoter Ets oligonucleotide (dsDNA)
DNA 1: TGCAAAGGAAACAGGAAAAAGGAACTTAAC
DNA 2: GTTAAGTTCCTTTTTCCTGTTTCCTTTGCA
Consider B4, for which the binding result with cELF-1 [4] is reported as “binds”.

B5: Tie1 P1 (dsDNA)
DNA 1: ACTGGCTTCCTCCCTTTCCTGTCTC
DNA 2: GAGACAGGAAAGGGAGGAAGCCAGT
B5: the binding result in the data set with cELF-1 [5] is given as “binds”.
